# From the nanobody polyreactivity screen of Harvey et al. (2022)
# Assay: yeast display, Sf9 membrane polyspecificity reagent, FACS + sequencing; frameworks hold sequencing errors
# In short: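 Polyreactivity labels are assigned by the sorting gate from which each nanobody was recovered. The gates were low and high (top ~1%), set on anti-HA fluorescence for expression and streptavidin fluorescence for reagent binding. Before sorting, galactose-induced (36–48 hours) yeast display cells were stained for 1 hour at 4 °C with 10% biotinylated, detergent-solubilized Sf9 membrane reagent.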
row,Sequence,polyreactivity (PSR sort gate)
1,QVQVVESGGGLVQAGGSHRLSCAASGSTFIRYPMGWYRQAPGKERELVAAITWSGGSTYYADSVKGRFTISRDNAKNTVYLQMNSLKPEDTAFYYCAARGPSLSNYRGRMYYWGQGTQVTVSS,high polyreactivity
2,QVQLVESGGGLVQAGGSLRLSCAASGLTLYLYTMGWYRQAPGTERELVASIDSGTSTKYADSVKGRFTISRDNAKNTVYLQMNSLKPEDTAVYYCAAGVWVTRYFGYYYWGQGTQVTVSS,low polyreactivity
3,QVQLVESGGGLVQAGGSLRLSCAASGRIFYFNAMGWYRQAPGKEREFVASINSIGDSTYYADSVKGRFTISRDNAKNTVYLHMNSLKPEDTAVYYCNADHGVINYRLDYWGQGTQVTVSS,low polyreactivity
4,QVQLVESGGGLVQAGGSLRLSCAASGGTFGGNAMGWYRQAPGKERELVAAITDIGGSTYYADSVKGRFTISRDNAKNTVYLQMNSLKPEDTAVYYCAKDNVEVVGQWSSDEYDYWGQGTQVTVSS,low polyreactivity
5,QVQLVESGGGLVQAGGSLRLSCAASGSIFYRNTMGWYRQAPVKERELVAAITSSGDSTYYADSVKGRFTISRDNAKNTVYFQMNSLKPEDTAVYYCAKDQHDFLEALYDSWGQGTQVTVSS,low polyreactivity
6,QVQLVESGGGLVQAGGSLRLSCAASGSIFSENAMGWYRQAPGKERELVADITDGGGSTYYADSVKGRFTISRDNAKNTVYLQMNSLKPEDTAVYYCNAQIFFFAPWYYEYDYWGQGTQVTVSS,low polyreactivity
7,QVQLVESGGGIVQAGGRLRLSCAASGRTSAVNAMVWYRQAPGKERELVAAITKSGGRTYYADSEKGRFTISRDNAKNTVYLQMNSLKPEDTAVYYCATSLLSRYGMDYWGQGTQVTVSS,high polyreactivity
8,QVQLVESGGGLVQAGGSLRLSCAASGSTFYENAKGWYRQAPGKERELVAGISRGGGSTYYADSVKGRFTISRDNAKNTVYLQMNSLKPEDTAVYYCARRPRYGVEYNYWGQGTQVTVSS,low polyreactivity
9,QVQIVESGGGLVQAGGSLRLSCAASGFIFWFNAMGWYRQAPGKERELVATISWSDTSTYYAVSVKGRFTISRDNAKNTVYLQMNSLKPEDTAVYYFATDASETSLPEYYWGQGTQETVSS,low polyreactivity
10,QVQLVESGGGLVQAGGSLRLSCAASGSTFKVYTMGWYRQAPGKERELVAAITGGGGSTYYADSVKGRFTISRDNAKNTVSLQMNSLKPEDTAVYYCAAQKRGPGYPYYYWGQGTQVTVSS,high polyreactivity
11,QVQLVESGGGLVQAGASLRLSCAASGIIFYANAMGWYRQAPGTERELVAAITFSGGSTYYADSVKGRFTISRDNAKNTVYLQMNSLKPEDTAVYYCAADKRFIPPHPHPLEFDYWGQGTQVTVSS,low polyreactivity
12,QVQLVESGGGLVQAGGRLRLSCAASGSNFTYYAMGWYRKAPGKEREFVAAISRRGGSTYYADSVKGRFTISRDNAKNTVYLQMNSLKPEDTAVYECNARYTGSSLYYWGQGTQLTVSS,high polyreactivity
13,QVQLVESGGGLVQAGGSLRLSCAASGFTFSRYAMGWYRQAPGKERELVAVISSSGSRTYYADSVKGRFTISRDNAKNTVYLQMNSLTPEDTAVYYCAAKSYTVTGYEYWGQGTQVTVSS,high polyreactivity
14,QVQLVESGGGLVQAGGSLRISCAASGFILGYKDMGWYRQAPGKERELVAAISSSGGSTYYADSVKGRFTISRDNSKNTVYLQMNILKPEDTAVYYCGLPYQTSYGEYDYWGQGTQVTVSS,low polyreactivity
15,QVQLVESGGGLVQAGGSLRLSCAASGSTFWKYAMGWYRQAPGKERELVAAITRNGGRTFYADSVKGRFTISRDNAKNTVYLQMNSLKPEDTAVYYCNATAGHGYYYWGQGTQVTVSS,high polyreactivity
16,QVQLVESGGGLVQAGGSLRLSCAASGRNFRANAMGWSRQEPGKERELVASITYSGGSTYYADSVKGRFTISRDNAKNTVYVQMNSLKPEDTAVYYCARAGISSGGYYYWGQGTQVTVSS,low polyreactivity
17,QVQLVESGGGLVQAGGSLRLSCAASGSIIVDNAMGWYRQAHGKERELVAAITDSGGRTYYADSVKGRYTISRDNAKNTVYLQMNSLKPEDTAVYYCNKQYIYTGRYSDGFDYCGQGTQVTVSS,low polyreactivity
18,QVQLLETGGGLVQAGRSLRLSCAASGFIFRANAMGWYRQAPGNERELVATISRSGGSTSYADSVKGRFTISRDNAKNTVYLQMNSLKPEDTAVYYCNKRTPYLRPILDYWGQGSQVTVSS,high polyreactivity
19,QVQLVESGGGLVQAGGSLRLSCAASGRTFNTYAMGWYRQAPGKERELVAAISRTGASTYYADSVKGRFTISRDNAKNTVYLQMNSLKPEDTAVYYCAADANSGDGYYWGQGTQVTVSS,high polyreactivity
20,QVQLVESGGGLVQAGGSLRLSCAASGSTFYVNTMGWYRQAPGKERELVAAISGSGGSTYYADSVKGRFTISRDNAKNTVYLQMNSLKPEDTAVHYCAARSRYGYITFDYWGQGTQVTVSS,high polyreactivity
21,QVKLVESGGGLVQAGGSLRLSCAASGSIFTYYAMGWYRQAPGKERELVADIRWSGGSTYYADSVKGRFTISRDNAKNTVYLQMNSLKPEDTAVYYCNARYYSYWPIYNFDYWGQGTQVTVSS,low polyreactivity
22,QVQLVESGGGLVQAGGSLRLSCAASGGTFKHYAMGWYRQAAGKERELVAAITRTGGSTYYADSVKGRYTISRDNAKNTVYLQMNSLKPEDTAVYYCAAQRPRGAYRHYDYWGQGTQVTVSS,high polyreactivity

row,Sequence,polyreactivity (PSR sort gate)
1,QDQLVESGGGLVQAGGSLRLSCAASGSIFLDNAMGWYRQAPGKERELVAAISKSGTRTYYADSVKGRFTISRDNAKNTVYLQMNSLKPEDTAVYYCNVVPKQAKSVELIGYYYWGQGTQVTVSS,high polyreactivity
2,QVQLVESGGGLVQAGGSLRLSCAASGFTFPYAMGWYTQAPGKERELVAGISWSGGSTYYADSVKGRFTISRDNAKNTVYLQMNSLKPEDTAVYYCNKYVQSGGTYDYWGQGTQVTVSS,low polyreactivity
3,QVQLVESGGGLVQAGGSLRLSCAASGSIFNTYVMGWYRQAPGKERELVAAITYSAGGDTYYADSVKGRFTISRDNAKNTVYLQMNSLKPEDTAVYYCAAEYTYLDAYGSYDYWGQGTQVTVSS,low polyreactivity
4,QVQLVESGGGLVQAGGSLRLSCAASGSIFYDKAMGRYRQAPGKEREFVAAISLRTGRTYYADSVKGRFTISRDNAKNTVYLQMNSLKPEDTAVYYCAARGYYGPKYYYWGQGTQVTVSS,high polyreactivity
5,QVQLVESGGGLVQAGGSLRIICAASGRIFYSNGMGWYRQAPGKERELVAGITRGGSTNYADSVKGRFTISRDNAKNTVYLQMISLKPEDTAVFYCAANQLHYRPSRFVYYGYRLYDYWGHGTQVTVSS,low polyreactivity
6,QVQLVESGGGLVQAGGSLRLSCAASGSIFWTNAMGWYRQAPGKERELVAAIRVSTGSTYYADSVKGRFTISRDNAKNTVYLQMNSLKPEVTAVYYFAARTYGWGYDYWGQGTQVTVSS,low polyreactivity
7,QVQLVESGGGLVQAGGSLRLSCAASGRILYSYAMGWYRQAPGKEREFVAAIRRSGGSTYYADSVKGRFSISRDNAKNTVYLQMNSLKPEDTAVYYCAAGRRYSGSYDYWGQGTQVTVSS,high polyreactivity
8,QVQLVESGGRIVQAGGSLRLRCAASGSTFRWYAMGRYRQAPGKERQLVASITWSGGGTYYADSVKGRFTISRDNAKNTVYLQMNSLKPEDTAVYYCNRRTWRYETRGDDYWGQGTQVTVSS,high polyreactivity
9,QVQLVESGGGLVQAGGSLRLSCAASGSIFDTNAMGWYRQAPGKERELVAAIRWSGGRTYYADSVKGRFTISRDNAKITVYLQMNSLKPEDTAVYYCNKVPRTPIPYKYGYWGQGTQVTVSS,high polyreactivity
10,QVQHVESGGGLVQAGGSLRLSCAASGRIFDTYTMGWYRAAPGKVRELVAAITSGGSTYYADSVKGRFTISRDNATNTVYLQMNSLKPEDTAVYYCAARYRSIIRYYYWGQGTQVTVSS,high polyreactivity
11,QVQLVESGGGLVQAGGSLRLSCAASGSIFVPYAMGWYRQAPGKERELVAAINHGGGRTYADSVKGRFTISRDNAKNTVYLQMNSLKPEDTAVYYCAADGAHKFGYYRYYYWGQGTQVTVSS,low polyreactivity
12,QVQLVESGGGLVQAGGSLRLSCAASAIIFDGNTMGWYRQAPGKEREFVAAISRNGGTTSYADSVKGRFTISRDNAKNTVYLQMNSLKPEDTAVYYCAADVETFWGWRYEYWGQGTQVTVSS,low polyreactivity
13,QVQLVESGGGLVQAGGSLRLSCAASGRTIFYYAMGWYRQAPGKERELVATITKRGGSTYYADSVKGRFTISRDNAKNTVYLQMNSLKPEDTALYYCAARFVGWRGGRAYYYWGQGTQVTVAS,high polyreactivity
14,QVQLVESGGGLVQAGGSLRLSCAASGLTFRSYSMGWYRQAPGKEREFVAAITGSGDTTYYADSVKGRFTISRDNAKNTVYLQMNSLKPEDTAVYYCNADRDYLWITLYEYWGQGTQVTVSS,high polyreactivity
15,QVQLVESGGGLVQAGGSLRLSCAPSGSTFYPYAMGWYRQAPGKEREFVAAIRSSGTSTYYADSVKGRFTISRDNAKNTVYLQMNSLKPEDTAVYYCAARVRGYSVTRTKPASIGGGSWGQGTQVTVSS,high polyreactivity
16,QVQLVESGGGLVQAGGSLRLSCAASGSTFTFYAMGWYRQAPGKERELVATISSSGGSTYYADSVKGRFTISRDNAKNTVYLQMNSLKPEDTAVYYCTATTAPRDGKWQGGMDYWGQGTQVTVSS,low polyreactivity
17,QVQLVESGGGLVQAGGSLRLSCAASGSISYYNAMGWYRQAPGKERELVATITDSGGSTYYADSVKGRFTISRDNAKNTVYLQLNSLKPEDTAVYYCAVDYSEWYSIYDYWGQGTQVTVSS,low polyreactivity
18,QVQLVESGGGLVQAGGSLRLSCAASGSTFQTYVMGWYRQAPGKERELVAAISSGGSTNYADSVKGRFTISRDNAKNTVYLQMISLKPEDTAVYYCAKRWPYFRRGKDGYWGQGTQVTVSS,low polyreactivity
19,QVQLVESGGGLVQAGGSLRLSCAASGRTFKFYAMGWYRQAPGKERELVATISSRGGNTFYADSVKGRFTISRDNAKNTVYLQMNSLIPEDTAVYYCAARRGVRKYPSAGYEYWGQGTQVTVSS,high polyreactivity
20,QVQLVESGGGLVQAGGSLRLSCAASGYIFAYNTMGWYRQAPGKERELVAAISRSGGSTYYADSVKGRFTISRDNAKNTVYLQMNSLKPEDTAVYYCAARYAPLDFRFDYWGQGTQVTVSS,high polyreactivity
21,QVQLVESGGGLVQAGGSLRLSCAASGRIFVKYAMGWYRQAPGKERELVAAITKSGSSTYYADSVKGRFTISRDNAKNTVYLQMNSLKPEDTAVYYCAALTISRSRTGYYWGQGTQVTVSS,low polyreactivity
